Holding throughout (experiment): IEDB peptide-MHC binding, purified MHC/competitive/radioactivity; filed as Kd, often an IC50 or EC50 that approximates it; ≥ and ≤ were set here for values at or beyond the usual limits of such assays
Test [1] concerns the target HLA-A*03:01.
Test [2] concerns the target HLA-A*11:01.
The target of test [3] is HLA-A*31:01.
Test [4] deals with HLA-A*33:01.
The target in test [5] is HLA-A*68:01.
Setting [6] is: source organism: Vaccinia virus WR.
Where [7] appears, read: source organism: Vaccinia virus Copenhagen.
Setting [8] is: source organism: SARS coronavirus Tor2.
Where [9] appears, read: source organism: Lymphocytic choriomeningitis virus (strain Armstrong).
Setting [10] is: source organism: Triticum aestivum.
The mark [11] stands for this setting: source organism: Lassa virus Josiah.

This passage reports Kd results from the Immune Epitope Database (IEDB).

pKd: −log10 of the molar value.

For the sequence LTIKDSSNK, the pKd in test [1] (setting [6]) is 6.08; in test [2] (setting [6]), 7.83; in test [3] (setting [6]), at most 4.46; in test [4] (setting [6]), at most 4.11; in test [5] (setting [6]) it was 8.04.
On to LTILDDNLYK, for which the pKd was 6.64 in test [1] (setting [7]); 8.47 in test [2] (setting [7]); 5.16 in test [3] (setting [7]); 4.75 in test [4] (setting [7]); 7.71 in test [5] (setting [7]).
Regarding LTMKAIEKDR, the pKd in test [1] (setting [6]) is 4.92; in test [2] (setting [6]), 6.55; in test [3] (setting [6]) it was 6.23; in test [4] (setting [6]), 5.20; in test [5] (setting [6]), 7.18.
With MIIKHIYEQY, the negative-log Kd (pKd) in test [1] (setting [6]) was at most 4.15; in test [2] (setting [6]) it was 5.24; in test [3] (setting [6]), at most 4.15; in test [4] (setting [6]), at most 4.15; in test [5] (setting [6]) it was 6.85.
With MLAHAEETRK, the pKd in test [1] (setting [8]) is 6.30; in test [2] (setting [8]), 5.19; in test [3] (setting [8]) it was 5.03; in test [4] (setting [8]), at most 4.15; in test [5] (setting [8]), 6.80.
For MSLSEQLRK the same measures were 8.08, 8.40, 6.74, 5.33 and 6.77.
On to NATDFWRLY, for which the pKd in test [1] (setting [6]) is 7.36; in test [2] (setting [6]), 6.90; in test [3] (setting [6]), 6.32; in test [4] (setting [6]) it was 6.28; in test [5] (setting [6]) it was 7.28.
On to NFFTELENKK, for which the pKd is at most 4.21 in test [1] (setting [6]); at most 4.49 in test [2] (setting [6]); at most 4.15 in test [3] (setting [6]); at most 4.48 in test [4] (setting [6]); 5.18 in test [5] (setting [6]).
For NFMVSVSDFR, the pKd in test [1] (setting [6]) is 5.00; in test [2] (setting [6]), 5.39; in test [3] (setting [6]), 7.03; in test [4] (setting [6]) it was 7.48; in test [5] (setting [6]), 8.18.
In the case of NLPYNWKNFY, the pKd was 5.75 in test [1] (setting [6]); 5.36 in test [2] (setting [6]); 5.76 in test [3] (setting [6]); 4.73 in test [4] (setting [6]); 6.20 in test [5] (setting [6]).
Consider NSESLSLISH, for which the pKd in test [1] (setting [9]) is at most 4.63; in test [2] (setting [9]), 5.09; in test [3] (setting [9]) it was 4.77; in test [4] (setting [9]), at most 4.50; in test [5] (setting [9]) it was at most 4.53.
Turning to NTLSERISSK, the pKd in test [1] (setting [6]) is 7.31; in test [2] (setting [6]) it was 9.13; in test [3] (setting [6]), 5.85; in test [4] (setting [6]), 6.39; in test [5] (setting [6]) it was 8.02.
As to NTPLHIVCSK, the negative logarithm of the Kd (pKd) in test [1] (setting [6]) was 7.49; in test [2] (setting [6]) it was 6.83; in test [3] (setting [6]) it was 6.63; in test [4] (setting [6]) it was 5.14; in test [5] (setting [6]) it was 7.97.
NTRQLKLLEY: the pKd is 6.01 in test [1] (setting [6]); 6.82 in test [2] (setting [6]); 5.01 in test [3] (setting [6]); 4.97 in test [4] (setting [6]); 5.80 in test [5] (setting [6]).
Turning to NVIEDITFLR, the pKd in test [1] (setting [6]) was 5.17; in test [2] (setting [6]), 6.64; in test [3] (setting [6]), 7.19; in test [4] (setting [6]) it was 7.90; in test [5] (setting [6]), 8.80.
As for NYSKFWYLEH, the pKd was at most 4.15 in test [1] (setting [9]); at most 4.16 in test [2] (setting [9]); 5.23 in test [3] (setting [9]); 6.52 in test [4] (setting [9]); at most 4.15 in test [5] (setting [9]).
Consider PISELSRLRY, for which the pKd in test [1] (setting [6]) was 5.49; in test [2] (setting [6]), 6.13; in test [3] (setting [6]) it was at most 4.15; in test [4] (setting [6]), 4.81; in test [5] (setting [6]), at most 4.35.
Turning to PQVGGLTSIK, the pKd in test [1] (setting [8]) is at most 5.00; in test [2] (setting [8]), 5.20; in test [3] (setting [8]), at most 4.15; in test [4] (setting [8]), at most 4.15; in test [5] (setting [8]), at most 4.43.
In the case of QLDEKSSIK, the pKd in test [1] (setting [6]) is 6.69; in test [2] (setting [6]) it was 6.29; in test [3] (setting [6]), 5.37; in test [4] (setting [6]), at most 4.25; in test [5] (setting [6]), 4.85.
Turning to QLMYALEPRK, the pKd in test [1] (setting [7]) was 6.82; in test [2] (setting [7]) it was 7.07; in test [3] (setting [7]), 5.08; in test [4] (setting [7]), at most 4.15; in test [5] (setting [7]) it was 7.08.
For QQHNIVHGK, the pKd is 4.90 in test [1] (setting [10]); 6.04 in test [2] (setting [10]); 5.63 in test [3] (setting [10]); at most 4.11 in test [4] (setting [10]); 6.14 in test [5] (setting [10]).
As to QSADASTFLK, the negative-log Kd (pKd) in test [1] (setting [8]) was 6.46; in test [2] (setting [8]), 7.99; in test [3] (setting [8]), 5.99; in test [4] (setting [8]) it was 5.28; in test [5] (setting [8]), 7.31.
In the case of RIQRRDDVDR, the pKd is at most 4.15 in test [1] (setting [6]); at most 4.16 in test [2] (setting [6]); 7.11 in test [3] (setting [6]); 4.75 in test [4] (setting [6]); at most 4.37 in test [5] (setting [6]).
In the case of RVDIYYNGNK, the pKd in test [1] (setting [6]) is 7.34; in test [2] (setting [6]), 8.31; in test [3] (setting [6]), 5.27; in test [4] (setting [6]) it was at most 4.27; in test [5] (setting [6]), 6.92.
For SFYYIWKSY, the negative-log Kd (pKd) in test [1] (setting [8]) was 5.29; in test [2] (setting [8]), 5.17; in test [3] (setting [8]), 7.17; in test [4] (setting [8]), 6.11; in test [5] (setting [8]) it was 6.35.
Take SIHLTKTDKK: the pKd was 6.73 in test [1] (setting [6]); 6.56 in test [2] (setting [6]); at most 4.66 in test [3] (setting [6]); at most 4.15 in test [4] (setting [6]); 5.70 in test [5] (setting [6]).
Consider SLSVETITEK, for which the pKd was 7.48 in test [1] (setting [6]); 6.93 in test [2] (setting [6]); 5.90 in test [3] (setting [6]); at most 4.15 in test [4] (setting [6]); 4.91 in test [5] (setting [6]).
In the case of SQMLLIVLK, the negative logarithm of the Kd (pKd) was 6.69 in test [1] (setting [8]); 9.30 in test [2] (setting [8]); 6.46 in test [3] (setting [8]); 5.30 in test [4] (setting [8]); 6.51 in test [5] (setting [8]).
As for SSLDQTHIK, the pKd in test [1] (setting [7]) is 6.02; in test [2] (setting [7]), 7.50; in test [3] (setting [7]), 7.59; in test [4] (setting [7]), 4.70; in test [5] (setting [7]), 5.83.
For the sequence STNLCTHSFR, the pKd in test [1] (setting [8]) was 6.53; in test [2] (setting [8]) it was 7.97; in test [3] (setting [8]) it was 9.03; in test [4] (setting [8]), 8.05; in test [5] (setting [8]) it was 8.21.
Regarding STRTIILVGY, the pKd is 6.73 in test [1] (setting [6]); 6.66 in test [2] (setting [6]); 6.47 in test [3] (setting [6]); 5.10 in test [4] (setting [6]); 7.00 in test [5] (setting [6]).
With SVEDVSAFVR, the negative-log Kd (pKd) in test [1] (setting [6]) is at most 4.15; in test [2] (setting [6]), 7.43; in test [3] (setting [6]), 6.18; in test [4] (setting [6]), 5.67; in test [5] (setting [6]) it was 7.81.
As to SVIRLLIWAY, the pKd in test [1] (setting [6]) is 5.86; in test [2] (setting [6]) it was 7.76; in test [3] (setting [6]), 5.65; in test [4] (setting [6]), 4.75; in test [5] (setting [6]) it was 6.11.
Consider TFNSLNTDDY, for which the pKd in test [1] (setting [6]) is 5.26; in test [2] (setting [6]), 5.00; in test [3] (setting [6]) it was at most 4.47; in test [4] (setting [6]) it was at most 4.15; in test [5] (setting [6]) it was 5.39.
As for TLTNTSIINH, the pKd is 5.29 in test [1] (setting [11]); 4.81 in test [2] (setting [11]); at most 4.22 in test [3] (setting [11]); at most 4.15 in test [4] (setting [11]); 4.88 in test [5] (setting [11]).
Regarding TQVLKTMSLY, the pKd was 6.73 in test [1] (setting [8]); 5.57 in test [2] (setting [8]); 5.03 in test [3] (setting [8]); at most 4.56 in test [4] (setting [8]); 4.99 in test [5] (setting [8]).
In the case of TTKDYFSFKK, the pKd in test [1] (setting [6]) was 7.50; in test [2] (setting [6]) it was 8.90; in test [3] (setting [6]), 7.02; in test [4] (setting [6]), 5.88; in test [5] (setting [6]), 9.25.
TVYDDAARR: the negative logarithm of the Kd (pKd) in test [1] (setting [8]) was 6.34; in test [2] (setting [8]), 7.01; in test [3] (setting [8]), 5.94; in test [4] (setting [8]) it was 5.30; in test [5] (setting [8]), 8.60.
As for VIGLTTHCTK, the negative logarithm of the Kd (pKd) was 7.81 in test [1] (setting [6]); 7.34 in test [2] (setting [6]); 6.12 in test [3] (setting [6]); at most 4.45 in test [4] (setting [6]); 7.14 in test [5] (setting [6]).
Regarding VLCNSQTSLR, the pKd in test [1] (setting [8]) was 6.36; in test [2] (setting [8]), 5.73; in test [3] (setting [8]), 7.16; in test [4] (setting [8]) it was 5.93; in test [5] (setting [8]), 6.00.
As to VLDRDGNFR, the pKd in test [1] (setting [6]) was 5.48; in test [2] (setting [6]) it was 4.81; in test [3] (setting [6]) it was 6.80; in test [4] (setting [6]), 6.22; in test [5] (setting [6]), 6.03.
For VSYEVFDDY, the pKd in test [1] (setting [6]) was at most 4.43; in test [2] (setting [6]) it was 6.87; in test [3] (setting [6]) it was at most 4.11; in test [4] (setting [6]), 4.72; in test [5] (setting [6]) it was 5.80.
On to VTMMKYCSY, for which the negative logarithm of the Kd (pKd) was 6.19 in test [1] (setting [6]); 8.06 in test [2] (setting [6]); 6.34 in test [3] (setting [6]); 5.69 in test [4] (setting [6]); 6.28 in test [5] (setting [6]).
As to VTYVPSQER, the pKd was 5.49 in test [1] (setting [8]); 6.05 in test [2] (setting [8]); 7.63 in test [3] (setting [8]); 6.47 in test [4] (setting [8]); 5.95 in test [5] (setting [8]).
Regarding VVPDYGTYK, the pKd is 6.51 in test [1] (setting [8]); 7.07 in test [2] (setting [8]); 5.57 in test [3] (setting [8]); 4.76 in test [4] (setting [8]); 6.31 in test [5] (setting [8]).
In the case of WFLKSGAVVK, the pKd is 7.96 in test [1] (setting [6]); 6.94 in test [2] (setting [6]); 5.12 in test [3] (setting [6]); 5.36 in test [4] (setting [6]); 6.72 in test [5] (setting [6]).

What is called pKd is the negative decadic logarithm of the Kd, by convention in mol/L.
